Like-named read-outs stand apart in the source and are kept apart here.

10 substances from patent US20190338048A1 can be followed below.

Experiment [1] deals with CAT-2200 Fab heavy chain L143D_K145T. In words: LCCA.
Experiment [2] addresses CAT-2200 Fab heavy chain S186K. Nature of the experiment: LCCA.
Experiment [3] has as its target CAT-2200 Fab heavy chain L143A_Q179K. Nature of the experiment: LCCA.
The target is the same in experiment [4]. In words: LCCA. This is another data set of the same source.
Experiment [5] deals with CAT-2200 Fab heavy chain Q179K. Nature of the experiment: LCCA.
The target in experiment [6] is CAT-2200 lambda light chain K129T_V133D_L135S. In words: LCCA, SPR tag read-out.
In experiment [7] the target is Pertuzumab kappa light chain S131K_L135K. In words: LCCA, SPR tag read-out.
Experiment [8] concerns the target Pertuzumab kappa light chain S121K_S131K_L135K. Nature of the experiment: LCCA, SPR tag read-out.
Experiment [9] concerns the target Pertuzumab kappa light chain S131R_V133G_L135W_S176R. Nature of the experiment: LCCA, SPR tag read-out.
The target is the same in experiment [10]. Nature of the experiment: LCCA, SPR tag read-out. This is another data set of the same source.
Experiment [11] has as its target Pertuzumab kappa light chain S131K_V133G_S176R. In words: LCCA, SPR.
For experiment [12], the target named is Pertuzumab kappa light chain S131R_V133G_S176R. In words: LCCA, SPR.
The target of experiment [13] is Pertuzumab kappa light chain S131K_V133G_S176R. In words: LCCA, SPR tag read-out.
Experiment [14] concerns the target CAT-2200 lambda light chain V133D_Y178T. Nature of the experiment: LCCA, SPR tag read-out.
In experiment [15] the target is Pertuzumab kappa light chain S131K_V133G_S176R. Nature of the experiment: LCCA, SPR tag read-out. The source holds these as a separate data set.
Experiment [16] concerns the target Pertuzumab kappa light chain S131R_V133G_L135W_S176R. Nature of the experiment: LCCA, SPR tag read-out. This is another data set of the same source.
For experiment [17], the target named is CAT-2200 lambda light chain K129T_T131D_V133D. In words: LCCA, SPR tag read-out.
Experiment [18] concerns the target CAT-2200 lambda light chain K129T_V133D_Y178T. In words: LCCA, SPR tag read-out.
Experiment [19] concerns the target Pertuzumab kappa light chain S131R_V133G_S176R. Nature of the experiment: LCCA, SPR tag read-out.
The target in experiment [20] is Pertuzumab kappa light chain S131K_V133G_S176R. Nature of the experiment: LCCA, SPR. This is another data set of the same source.
In experiment [21] the target is CAT-2200 lambda light chain K129T_V133D. Nature of the experiment: LCCA, SPR.
The target in experiment [22] is Pertuzumab kappa light chain S131R_V133G_S176R. In words: LCCA, SPR. The source holds these as a separate data set.
Experiment [23] has as its target CAT-2200 lambda light chain K129T_V133D. Nature of the experiment: LCCA, SPR. The source holds these as a separate data set.
For experiment [24], the target named is CAT-2200 lambda light chain S122D_K129T_V133D. In words: LCCA, SPR tag read-out.
Experiment [25] addresses CAT-2200 lambda light chain S122D_K129T_V133D_Y178T. In words: LCCA, SPR tag read-out.
Experiment [26] concerns the target CAT-2200 lambda light chain S122D_V133D_Y178T. In words: LCCA, SPR tag read-out.
Experiment [27] concerns the target Pertuzumab kappa light chain S121K_S131R_V133G_S176R. In words: LCCA, SPR tag read-out.
The target is the same in experiment [28]. Nature of the experiment: LCCA, SPR tag read-out. The source holds these as a separate data set.
For experiment [29] the target is unchanged. Nature of the experiment: LCCA, SPR tag read-out. This is another data set of the same source.
Experiment [30] addresses Pertuzumab kappa light chain Q124R_T178R. Nature of the experiment: LCCA, SPR tag read-out.
Experiment [31] shares this target. Nature of the experiment: LCCA, SPR tag read-out. This is another data set of the same source.
Experiment [32] has as its target Pertuzumab kappa light chain Q124R_L135W_T178R. Nature of the experiment: LCCA, SPR tag read-out.
Experiment [33] has as its target Pertuzumab kappa light chain Q124R_L135W_Q160K_T178R. In words: LCCA.
For experiment [34], the target named is Pertuzumab kappa light chain Q124R_L135W_T178R. In words: LCCA, SPR tag read-out. This is another data set of the same source.
Experiment [35] addresses Pertuzumab kappa light chain Q124R_Q160R_T178R. Nature of the experiment: LCCA, SPR tag read-out.
Experiment [36] has the same target. In words: LCCA, SPR tag read-out. The source holds these as a separate data set.
In experiment [37] the target is Pertuzumab kappa light chain Q124R_T178R. In words: LCCA, SPR tag read-out. This is another data set of the same source.
The target of experiment [38] is Pertuzumab kappa light chain Q124R_L135W_T178R. In words: LCCA, SPR tag read-out. This is another data set of the same source.
Experiment [39] deals with Pertuzumab kappa light chain Q124R_L135W_Q160K_T178R. In words: LCCA, SPR tag read-out.
For experiment [40], the target named is Pertuzumab kappa light chain Q124R_T178R. Nature of the experiment: LCCA, SPR tag read-out. The source holds these as a separate data set.
Experiment [41] shares this target. Nature of the experiment: LCCA, SPR tag read-out. This is another data set of the same source.
The target in experiment [42] is Pertuzumab kappa light chain V133I_S176D_T178E (L2), N-terminal HA tag. Nature of the experiment: LCCA, SPR of light chain tags.
Experiment [43] concerns the target Pertuzumab kappa light chain V133I_S176E_T178E (L2), N-terminal HA tag. In words: LCCA, SPR of light chain tags.
Experiment [44] addresses Pertuzumab kappa light chain V133L_S176D_T178E (L2), N-terminal HA tag. Nature of the experiment: LCCA, SPR of light chain tags.
The target in experiment [45] is CAT-2200 lambda light chain S176K_Y178K (L1), N-terminal FLAG tag. Nature of the experiment: LCCA, SPR of light chain tags.
Experiment [46] deals with Pertuzumab kappa light chain V133L_S176D_T178E (L2), N-terminal HA tag. In words: LCCA, SPR of light chain tags. This is another data set of the same source.
For experiment [47], the target named is Pertuzumab kappa light chain V133I_S176E_T178E (L2), N-terminal HA tag. In words: LCCA, SPR of light chain tags. This is another data set of the same source.
The target in experiment [48] is CAT-2200 lambda light chain S176K_Y178K (L1), N-terminal FLAG tag. Nature of the experiment: LCCA, SPR of light chain tags. This is another data set of the same source.

With “CAT-2200 lambda light chain E124Q_T131K_V133S”, the H1L1:H1L2 median scalar value (ln(H1L1:H1L2)) in [1] was 0.54.

For “CAT-2200 lambda light chain K129T_V133D_Y178T”, in experiment [2], the H1L1:H1L2 median scalar value (ln(H1L1:H1L2)) came out at 0.06.

Regarding “CAT-2200 lambda light chain K129T_V133W_S180E”, the H1L1:H1L2 median scalar value (ln(H1L1:H1L2)) in [3] was found to be 0.88; in experiment [4], 1.51.

On to “CAT-2200 lambda light chain K129T_Y178E_S180E”, for which the H1L1:H1L2 median scalar value (ln(H1L1:H1L2)) in experiment [5] is 0.89.

Consider “Pertuzumab Fab heavy chain L124E_A139I_K145T_V190I”, for which the H2L2:H2L1 normalized median ratio in [6] amounted to 39%. In addition, in experiment [7], the H2L2:H2L1 median scalar value is 0.48 ln(ratio) and the H2L2:H2L1 normalized median ratio amounted to 61%.

As for “Pertuzumab Fab heavy chain L124E_A139I_K145T_V190I_K228D”, in experiment [8], the H2L2:H2L1 median scalar value was 0.25 ln(ratio).

As for “Pertuzumab Fab heavy chain L124E_K145T_Q179E”, the H2L2:H2L1 median scalar value in [9] is 1.7 ln(ratio); in experiment [10] it was 2.31 ln(ratio); in experiment [13], 3.71 ln(ratio); in [15] it was 3.26 ln(ratio); in [16], 1.71 ln(ratio); in [19] it was 4.11 ln(ratio). For the same substance, the H2L2:H2L1 normalized median scalar value ln(r1/f1) in experiment [11] stood at 2.18; in experiment [12], 2.72; in [20], 2.38; in experiment [22] it was 3.12. Also, the H2L2:H2L1 normalized median ratio in experiment [14] came to 16%; in [17], 4%; in experiment [18], 16%; in [21] it was 8%; in experiment [23], 4%.

As for “Pertuzumab Fab heavy chain L124E_K145T_Q179E_K228D”, the H2L2:H2L1 normalized median ratio in experiment [24] turned out to be 5%; in experiment [25], 8%; in experiment [26], 14%; in experiment [27], 86%; in experiment [28], 95%; in [29], 92%. Moreover, the values for the H2L2:H2L1 median scalar value in experiment [27], in experiment [28] and in experiment [29] were 1.9 ln(ratio), 3.08 ln(ratio) and 2.42 ln(ratio), respectively.

Take “Pertuzumab Fab heavy chain L143E_K145T_Q179E”: the H2L2:H2L1 median scalar value in experiment [30] was 2.74 ln(ratio); in experiment [31], 3.01 ln(ratio); in experiment [32], 2.54 ln(ratio); in experiment [33], 0.77 ln; in experiment [34] it was 2.68 ln(ratio); in experiment [35], 2.58 ln(ratio). The H2L2:H2L1 median scalar value is 2.79 ln(ratio) in experiment [36]; 3.52 ln(ratio) in experiment [37]; 2.64 ln(ratio) in experiment [38]; 2.02 ln(ratio) in [39]; 3.1 ln(ratio) in experiment [40]; 3.63 ln(ratio) in experiment [41].

As for “Pertuzumab Fab heavy chain V177I_S188K (H2), ABD2-His6 tagged”, the H2L2:H2L1 normalized median ratio in experiment [42] amounted to 91%; in experiment [44], 91%; in experiment [45] it was 9%; in experiment [48], 9%. For the same substance, the H2L2:H2L1 normalized median scalar value ln(r1/f1) was 2.34 in [42]; 2.83 in [43]; 2.37 in experiment [44]; 0.55 in experiment [46]; 2.79 in experiment [47].
